Measurements taken from the supplement of paper PMC9233669.
Fewer inactive variants are shown than the library holds.

Key:
[1] = test system: biotinyl-Ile-oxazolone; assay: self-aminoacylation, catalytic enhancement (BIO) (fold over background); higher = more active; k-Seq, kA / k0A0; sequences stand for … in GGGAAUGGAUCCACAUCUACGAAUUC…UUCACUGCAGACUUGACGAAGCUG
How it was run: (§1)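 Mutagenized RNA pools (0.43 μM; 21-nt variable region) were treated with 2–1250 μM of each biotinyl-aminoacyl-oxazolone. Conditions were 50 μL HEPES/NaCl/KCl/MgCl2/CaCl2 buffer, 5% acetonitrile, pH 6.9–7.0, room temperature, 90 minutes. Catalytic enhancement, the median kA relative to the uncatalyzed rate, was derived from streptavidin capture, qPCR and Illumina sequencing.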

[2] = test system: biotinyl-Met-oxazolone; assay: self-aminoacylation, catalytic enhancement (BMO) (fold over background); higher = more active; k-Seq, kA / k0A0; sequences stand for … in GGGAAUGGAUCCACAUCUACGAAUUC…UUCACUGCAGACUUGACGAAGCUG
How it was run: as §1

[3] = test system: biotinyl-Val-oxazolone; assay: self-aminoacylation, catalytic enhancement (BVO) (fold over background); higher = more active; k-Seq, kA / k0A0; sequences stand for … in GGGAAUGGAUCCACAUCUACGAAUUC…UUCACUGCAGACUUGACGAAGCUG
How it was run: as §1

[4] = test system: biotinyl-Trp-oxazolone; assay: self-aminoacylation, catalytic enhancement (BWO) (fold over background); higher = more active; k-Seq, kA / k0A0; sequences stand for … in GGGAAUGGAUCCACAUCUACGAAUUC…UUCACUGCAGACUUGACGAAGCUG
How it was run: as §1

[5] = test system: biotinyl-Phe-oxazolone; assay: self-aminoacylation, catalytic enhancement (BFO) (fold over background); higher = more active; k-Seq, kA / k0A0; sequences stand for … in GGGAAUGGAUCCACAUCUACGAAUUC…UUCACUGCAGACUUGACGAAGCUG
How it was run: as §1

[6] = test system: biotinyl-Leu-oxazolone; assay: self-aminoacylation, catalytic enhancement (BLO) (fold over background); higher = more active; k-Seq, kA / k0A0; sequences stand for … in GGGAAUGGAUCCACAUCUACGAAUUC…UUCACUGCAGACUUGACGAAGCUG
How it was run: as §1

Row | Sequence | self-aminoacylation [1] | self-aminoacylation [2] | self-aminoacylation [3] | self-aminoacylation [4] | self-aminoacylation [5] | self-aminoacylation [6]
1 | AUUACCCUCGUCUUCGAGUGA [Fam2.1 aminoacylation ribozyme variant] | 2.8 | 5.15 | 3.24 | 7.17 | 29.4 | 5.17
2 | AUUACCCUGAUCACCGAGUGA [Fam2.1 aminoacylation ribozyme variant] | 3.08 | 7.33 | 3.74 | 6.75 | 42.1 | 7.42
3 | AUUACCCUGAUCAUCGAGUAA [Fam2.1 aminoacylation ribozyme variant] | 1.25 | 1.33 | 1.32 | 0.877 | 1.09 | 1.02
4 | AUUACCCUGAUCAUCGAGUGU [Fam2.1 aminoacylation ribozyme variant] | 1.81 | 4.23 | 2.24 | 5.04 | 5.33 | 3.28
5 | AUUACCCUGAUCAUCGCGUGA [Fam2.1 aminoacylation ribozyme variant] | 5.83 | 14.7 | 7.01 | 14.9 | 99.5 | 14.1
6 | AUUACCCUGAUCAUCUAGUGA [Fam2.1 aminoacylation ribozyme variant] | 5.67 | 13.5 | 6.47 | 15.6 | 56.9 | 11.2
7 | AUUACCCUGAUCAUGGAGUGA [Fam2.1 aminoacylation ribozyme variant] | 4.86 | 10.8 | 4.92 | 13 | 53.6 | 10.5
8 | AUUACCCUGAUCGUCGAGUGA [Fam2.1 aminoacylation ribozyme variant] | 0.89 | 0.75 | 0.862 | 0.86 | 0.434 | 0.865
9 | AUUACCCUGAUUAUCGAGUGA [Fam2.1 aminoacylation ribozyme variant] | 7.51 | 17.9 | 7.28 | 22 | 117 | 17.4
10 | AUUACCCUGCCCAUCGAGUGA [Fam2.1 aminoacylation ribozyme variant] | 2.94 | 5.7 | 3.23 | 6.52 | 38.9 | 5.53
11 | AUUACCCUGCUCAGCGAGUGA [Fam2.1 aminoacylation ribozyme variant] | 2.24 | 3.61 | 2.76 | 4.77 | 18.5 | 3.79
12 | AUUACCCUGCUCAUAGAGUGA [Fam2.1 aminoacylation ribozyme variant] | 3.87 | 9.74 | 4.28 | 10.7 | 57.5 | 8.96
13 | AUUACCCUGCUCAUCGAAUGA [Fam2.1 aminoacylation ribozyme variant] | 0.867 | 0.845 | 0.974 | 1.32 | 0.772 | 0.735
14 | AUUACCCUGCUCGUCGAGUGA [Fam2.1 aminoacylation ribozyme variant] | 0.725 | 0.533 | 0.766 | 0.43 | 0.752 | 0.689
15 | AUUACCCUGCUUAUCGAGUGA [Fam2.1 aminoacylation ribozyme variant] | 1.29 | 1.64 | 1.37 | 2.33 | 2.4 | 1.96
16 | AUUACCCUGGAAAUCGAGUGA [Fam2.1 aminoacylation ribozyme variant] | 8.3 | 19.4 | 8.39 | 22.6 | 149 | 20.8
17 | AUUACCCUGGACACCGAGUGA [Fam2.1 aminoacylation ribozyme variant] | 2.15 | 4.14 | 1.83 | 3.99 | 4.62 | 3.5
18 | AUUACCCUGGACAUGGAGUGA [Fam2.1 aminoacylation ribozyme variant] | 3.74 | 8.57 | 3.69 | 10.6 | 57.2 | 9.2
19 | AUUACCCUGGCCAUCCAGUGA [Fam2.1 aminoacylation ribozyme variant] | 4.38 | 7.34 | 4.01 | 7.75 | 35.9 | 8.23
20 | AUUACCCUGGCCAUCGAAUGA [Fam2.1 aminoacylation ribozyme variant] | 1 | 0.928 | 1.31 | 0.331 | 1.84 | 1.4
21 | AUUACCCUGGCCAUCGAGUGG [Fam2.1 aminoacylation ribozyme variant] | 1.26 | 1.72 | 1.17 | 1.66 | 2.71 | 1.95
22 | AUUACCCUGGCCAUCGCGUGA [Fam2.1 aminoacylation ribozyme variant] | 4.28 | 6.31 | 4.81 | 8.64 | 56.3 | 11
23 | AUUACCCUGGCCAUCGGGUGA [Fam2.1 aminoacylation ribozyme variant] | 3.8 | 8.01 | 6.42 | 11.8 | 49.1 | 9.65
24 | AUUACCCUGGCCCUCGAGUGA [Fam2.1 aminoacylation ribozyme variant] | 2.5 | 4.04 | 3.42 | 3.6 | 24.1 | 4.5
25 | AUUACCCUGGGCAACGAGUGA [Fam2.1 aminoacylation ribozyme variant] | 3.81 | 7.64 | 4 | 10.3 | 57.4 | 10.3
26 | AUUACCCUGGGCAUCAAGUGA [Fam2.1 aminoacylation ribozyme variant] | 1.16 | 1.76 | 1.37 | 1.64 | 2.16 | 1.73

Row | Sequence | self-aminoacylation [1] | self-aminoacylation [2] | self-aminoacylation [3] | self-aminoacylation [4] | self-aminoacylation [5] | self-aminoacylation [6]
27 | AUUACCCUGGGCAUGGAGUGA [Fam2.1 aminoacylation ribozyme variant] | 3.35 | 7.29 | 3.13 | 8.01 | 40.7 | 8.39
28 | AUUACCCUGGGCCUCGAGUGA [Fam2.1 aminoacylation ribozyme variant] | 2.41 | 3.15 | 2.61 | 4.65 | 22.6 | 3.74
29 | AUUACCCUGGUAACCGAGUGA [Fam2.1 aminoacylation ribozyme variant] | 5.22 | 12.5 | 5.58 | 14.2 | 96.5 | 12.2
30 | AUUACCCUGGUAAUCAAGUGA [Fam2.1 aminoacylation ribozyme variant] | 1.71 | 3.27 | 1.73 | 3.48 | 16.1 | 3.14
31 | AUUACCCUGGUAAUCGAGAGA [Fam2.1 aminoacylation ribozyme variant] | 1.02 | 0.722 | 0.78 | 0.573 | 0.58 | 0.723
32 | AUUACCCUGGUAAUCGAGUGU [Fam2.1 aminoacylation ribozyme variant] | 2.17 | 5.16 | 2.22 | 4.99 | 19.2 | 5.04
33 | AUUACCCUGGUAAUCUAGUGA [Fam2.1 aminoacylation ribozyme variant] | 5.57 | 13 | 5.92 | 15.9 | 86.4 | 12.4
34 | AUUACCCUGGUAAUGGAGUGA [Fam2.1 aminoacylation ribozyme variant] | 3.32 | 8.43 | 3.73 | 9.08 | 55.9 | 8.53
35 | AUUACCCUGGUCAACGACUGA [Fam2.1 aminoacylation ribozyme variant] | 0.653 | 0.47 | 0.66 | 0.514 | 0.635 | 0.523
36 | AUUACCCUGGUCAACGAGUGA [Fam2.1 aminoacylation ribozyme variant] | 3.43 | 6.11 | 3.6 | 7.31 | 22.4 | 5.99
37 | AUUACCCUGGUCAACGAGUGC [Fam2.1 aminoacylation ribozyme variant] | 0.908 | 0.848 | 0.903 | 0.892 | 0.478 | 1.01
38 | AUUACCCUGGUCAACGCGUGA [Fam2.1 aminoacylation ribozyme variant] | 4.65 | 10.8 | 6.15 | 12.3 | 72.1 | 12.5
39 | AUUACCCUGGUCAACGGGUGA [Fam2.1 aminoacylation ribozyme variant] | 4.83 | 9.43 | 4.61 | 10.8 | 46.6 | 9.68
40 | AUUACCCUGGUCAACUAGUGA [Fam2.1 aminoacylation ribozyme variant] | 3.93 | 8.64 | 4.39 | 9.81 | 24.9 | 6.83
41 | AUUACCCUGGUCACCGAGUCA [Fam2.1 aminoacylation ribozyme variant] | 1.43 | 1.45 | 1.49 | 1.84 | 0.799 | 1.75
42 | AUUACCCUGGUCACCGAGUGC [Fam2.1 aminoacylation ribozyme variant] | 1.76 | 1.43 | 1.45 | 2.11 | 3.95 | 2.61
43 | AUUACCCUGGUCACCGGGUGA [Fam2.1 aminoacylation ribozyme variant] | 6.24 | 14.5 | 7.91 | 14.1 | 87.4 | 14.8
44 | AUUACCCUGGUCACGGAGUGA [Fam2.1 aminoacylation ribozyme variant] | 3.43 | 7.34 | 3.92 | 8.54 | 37.5 | 7.68
45 | AUUACCCUGGUCAGAGAGUGA [Fam2.1 aminoacylation ribozyme variant] | 3.18 | 7.04 | 3.41 | 8.25 | 19.9 | 6.71
46 | AUUACCCUGGUCAGCGACUGA [Fam2.1 aminoacylation ribozyme variant] | 1.12 | 1.3 | 1.31 | 1.94 | 1.03 | 1.05
47 | AUUACCCUGGUCAGCGCGUGA [Fam2.1 aminoacylation ribozyme variant] | 3.45 | 5.84 | 3.95 | 6.87 | 35.3 | 6.5
48 | AUUACCCUGGUCAUAGAGCGA [Fam2.1 aminoacylation ribozyme variant] | 1.05 | 1.03 | 1.04 | 1.18 | 1.37 | 1.04
49 | AUUACCCUGGUCAUAGAGUCA [Fam2.1 aminoacylation ribozyme variant] | 0.884 | 0.82 | 0.974 | 0.529 | 0.531 | 0.962
50 | AUUACCCUGGUCAUAGAGUGG [Fam2.1 aminoacylation ribozyme variant] | 1.37 | 2.18 | 1.43 | 1.18 | 3.37 | 2.31
51 | AUUACCCUGGUCAUAUAGUGA [Fam2.1 aminoacylation ribozyme variant] | 5.04 | 11.2 | 5.51 | 12.4 | 69.1 | 10.7
